Patent US9687560B2, “Skin-permeating peptide” (LG Household & Health Care Ltd., priority 2012, dated 2017)
Entries after “also recorded” stand apart in the source; their conditions may differ. Primed or numbered codes have the meaning given here. Ends that are not written are not given here. Dansyl′ = dansyl group

Key:
porcine skin [1] = assay: Skin permeability test of skin permeable peptide derivative (Franz glass cell, fluorescence); assay type: in vitro ADME
Description: A dansyl group was linked at the C-terminus of each peptide having any one amino acid sequence of SEQ ID NOs. 1 to 10 which were selected in Example 1 so as to synthesize a derivative thereof, and it was intended to examine skin permeability thereof. In detail, each of the peptides was chemically synthesized, and then a dansyl group was added at the C-terminus of each peptide to synthesize a derivative thereof. As a control group, a peptide composed of the amino acid sequence of “[…] NO. 21)” which was prepared by adding a dansyl group at the C-terminus was used. […] Then, each derivative was added at the same concentration to the top of the cell, followed by incubation for 16 hours. After completion of the incubation, the amount of each derivative in the receiver at the bottom was measured using a victor fluorescence meter (340/520) to compare permeation degree (Table 2),

porcine skin [2] = assay: Skin retention test of skin permeable peptide derivative (fluorescence); assay type: binding; conditions: for Fluorescent intensity (340/520), amount of peptide derivative remaining in porcine skin: 10 minutes incubation with skin, washed ten times; for Level of peptide derivative remaining in the skin (in words): compared to control group / among the 10 peptides
Description: To examine skin binding affinity of the derivatives synthesized in Example 3, the porcine skin was reacted with each of the derivatives, and the amount of the peptide dissolved in the surface was measured. In detail, the porcine skin was cut and put in a 1.5 ml tube, and 500 μl of TBS (1% BSA) was added thereto. […] After incubation, washing was performed using TBS (1% BSA) at 12,000 RPM for 1 minute ten times, and the porcine skin in which the reaction was completed was transferred to a 24-well plate. The amount of the peptide remaining on the surface was measured using a victor fluorescence meter (340/520) and compared (Table 4).

porcine skin [3] = assay: Skin retention test of phage including skin permeable peptide (anti-M13 antibody-HRP, absorbance); assay type: binding; conditions: compared to control group / among the 10 peptides
Source text: Skin permeation mainly occurs by the mechanism of a diffusion of a substance dissolved in the components of the skin from the outermost layer to the innermost layers. Through this mechanism, an active ingredient can be effectively delivered throughout the skin. The skin surface is composed of corneocytes and intercellular materials. […] In this case, the product first binds to the skin, and then diffuses into the inner layer. Therefore, binding affinity of the selected phages to the skin was measured to examine the superiority of the peptides.
To measure the amount of the phage binding to the porcine skin, anti-M13 antibody-HRP conjugate was used. […] The porcine skin thus cut was put in a 1.5 ml tube, and 500 μl of TBS (1% BSA) was added thereto. […] Thereafter, they were washed using 1% BSA-containing TBS solution at 12,000 RPM for 1 minute 10 times. Subsequently, 500 μl of TBS solution containing anti-M13 antibody-HRP (Horseradish peroxidase) conjugate-containing 1% BSA was added, followed by incubation for 5 minutes. TBS solution containing 1% BSA was added to the culture, followed by washing at 12,000 RPM for 1 minute 10 times. The residual buffer was completely removed, and TMB solution (Tetramethylbenzidine solution, Amersham) was further added. […] Then, absorbance (450 nm) was measured to determine binding affinity between phage-skin.

Skin binding affinity / skin retention of phage (in words) (porcine skin [3])	Substance	Fluorescence intensity (340/520), amount of porcine skin-permeating peptide derivative (porcine skin [1])	Skin permeability of peptide derivative (in words) (porcine skin [1])	Fluorescent intensity (340/520), amount of peptide derivative remaining in porcine skin (porcine skin [2])	Level of peptide derivative remaining in the skin (in words) (porcine skin [2])
–	S3-1 peptide derivative: peptide NQTDHLFSTFIS (SEQ ID NO. 1) with a dansyl group added at the C-terminus (NQTDHLFSTFIS-{Dansyl′})	42000	relatively excellent skin permeability	143000	relatively high level
highest skin binding affinity	S3-2 peptide derivative: peptide NGSLNTHLAPIL (SEQ ID NO. 2) with a dansyl group added at the C-terminus (NGSLNTHLAPIL-{Dansyl′})	70000	–	260000	relatively high level; also recorded: highest level
–	S3-3 peptide derivative: peptide GGSIAASELEYY (SEQ ID NO. 3) with a dansyl group added at the C-terminus (GGSIAASELEYY-{Dansyl′})	19000	relatively excellent skin permeability	47000	–
–	S3-7 peptide derivative: peptide ELKQVVISDINH (SEQ ID NO. 4) with a dansyl group added at the C-terminus (ELKQVVISDINH-{Dansyl′})	25000	relatively excellent skin permeability	98000	relatively high level
–	S3-8 peptide derivative: peptide MVRDHPGLSGWT (SEQ ID NO. 5) with a dansyl group added at the C-terminus (MVRDHPGLSGWT-{Dansyl′})	22000	relatively excellent skin permeability	100000	relatively high level
–	S3-9 peptide derivative: peptide TSGISINKLPHT (SEQ ID NO. 6) with a dansyl group added at the C-terminus (TSGISINKLPHT-{Dansyl′})	18000	relatively excellent skin permeability	47000	–
–	S4-4 peptide derivative: peptide IFAALDYNLGRH (SEQ ID NO. 7) with a dansyl group added at the C-terminus (IFAALDYNLGRH-{Dansyl′})	4400	–	13200	–
–	S4-7 peptide derivative: peptide DMKWTLKEWMTH (SEQ ID NO. 8) with a dansyl group added at the C-terminus (DMKWTLKEWMTH-{Dansyl′})	8600	–	37600	–
–	S4-9 peptide derivative: peptide QIEKHVYFNASQ (SEQ ID NO. 9) with a dansyl group added at the C-terminus (QIEKHVYFNASQ-{Dansyl′})	16000	relatively excellent skin permeability	56000	–
–	S4-10 peptide derivative: peptide TNIPSLSGILMK (SEQ ID NO. 10) with a dansyl group added at the C-terminus (TNIPSLSGILMK-{Dansyl′})	9000	–	25000	–
